This test addresses low molecular weight single-chain urokinase plasminogen activator (lmw-scuPA), non-targeted (human, UniProt P00749 164-431). Nature of the test: ELISA on plates coated with soluble mouse PECAM. The method, then:
The size and homogeneity of purified scFv/uPA-T was analyzed using 12% SDS-PAGE with or without addition of thrombin (150 nM). Conversion to its two-chain derivative was determined in the presence of 50 mM dithiothreitol (DTT). cDNA encoding the extracellular domain of mouse PECAM (amino acids Glu¹⁸-Lys⁵⁹⁰) was obtained by the reverse transcription polymerized chain reaction (RT-PCR) using mouse lung tissue total RNA. A FLAG affinity tag was fused to the N-terminus and subcloned into the BglII and NotI sites in the pMT/Bip vector. Stable cell lines were generated. Soluble mouse PECAM was purified from secreted supernatant using M2 anti-FLAG affinity chromatography. Specific binding of scFv/uPA-T to soluble PECAM was measured by ELISA. Each well within a 96-well plate was coated with 5 μg/ml soluble mouse PECAM protein overnight, the unbound sites were blocked with PBS containing 5% bovine serum albumin (BSA) at 37° C. for 1 h and various dilutions of scFv/uPA-T or WT lmw-scuPA were added for 1 hour. Unbound protein was removed by washing with PBS and 1 μg/ml anti-uPA monoclonal antibody in PBS containing 1% BSA was added. The wells were washed, horseradish peroxidase conjugated anti-mouse IgG was added, the wells washed again, TMB substrate was added and the optical density at 450 nm (OD450) was measured. […]
In general terms: ELISA stands for enzyme-linked immunosorbent assay.

B1: soluble mouse PECAM, extracellular domain (Glu18-Lys590) with N-terminal FLAG tag (receptor, UniProt Q08481 18-590, looked up, not shown: small tags and cut ends)
chain: EENSFTINSIHMESLPSWEVMNGQQLTLECLVDISTTSKSRSQHRVLFYKDDAMVYNVTSREHTESYVIPQARVFHSGKYKCTVMLNNKEKTTIEYEVKVHGVSKPKVTLDKKEVTEGGVVTVNCSLQEEKPPIFFKIEKLEVGTKFVKRRIDKTSNENFVLMEFPIEAQDHVLVFRCQAGILSGFKLQESEPIRSEYVTVQESFSTPKFEIKPPGMIIEGDQLHIRCIVQVTHLVQEFTEIIIQKDKAIVATSKQSSEAVYSVMAMVEYSGHYTCKVESNRISKASSIMVNITELFPKPKLEFSSSRLDQGELLDLSCSVSGTPVANFTIQKEETVLSQYQNFSKIAEESDSGEYSCTAGIGKVVKRSGLVPIQVCEMLSKPSIFHDAKSEIIKGHAIGISCQSENGTAPITYHLMKAKSDFQTLEVTSNDPATFTDKPTRDMEYQCRADNCHSHPAVFSEILRVRVIAPVDEVVISILSSNEVQSGSEMVLRCSVKEGTSPITFQFYKEKEDRPFHQAVVNDTQAFWHNKQASKKQEGQYYCTASNRASSMRTSPRSSTLAVRVFLAPWKK
notes: range 18-590; Secreted from Drosophila cells (pMT/Bip vector), purified on M2 anti-FLAG; coated on 96-well plates at 5 ug/ml; also called immobilized extracellular domain of mouse PECAM; immobilized mouse PECAM
Consider B1, for which the binding result was “no binding”.

Source of the values: US20090130104A1 (University of Pennsylvania, published 2009).
